The target in data set [1] is recombinant IGFBP-3, P17936.
Data set [2] addresses endogenous IGFBP-3 in human synovial fluid, P17936.

Sequence of recombinant IGFBP-3, P17936 (P17936 28-291): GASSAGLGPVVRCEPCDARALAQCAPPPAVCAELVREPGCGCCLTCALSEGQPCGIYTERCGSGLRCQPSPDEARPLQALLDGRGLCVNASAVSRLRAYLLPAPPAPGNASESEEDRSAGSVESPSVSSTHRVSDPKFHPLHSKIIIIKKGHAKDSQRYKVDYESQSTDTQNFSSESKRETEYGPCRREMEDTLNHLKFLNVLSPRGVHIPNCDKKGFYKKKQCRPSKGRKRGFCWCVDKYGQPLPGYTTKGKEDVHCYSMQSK
Sequence of endogenous IGFBP-3 in human synovial fluid, P17936 (P17936 28-291): as above

B1: PAPPA2 from conditioned media (protein)
chain: PPEESNQNGGEGSYREAETFNSQVGLPILYFSGRRERLLLRPEVLAEIPREAFTVEAWVKPEGGQNNPAIIAGVFDNCSHTVSDKGWALGIRSGKDKGKRDARFFFSLCTDRVKKATILISHSRYQPGTWTHVAATYDGRHMALYVDGTQVASSLDQSGPLNSPFMASCRSLLLGGDSSEDGHYFRGHLGTLVFWSTALPQSHFQHSSQHSSGEEEATDLVLTASFEPVNTEWVPFRDEKYPRLEVLQGFEPEPEILSPLQPPLCGQTVCDNVELISQYNGYWPLRGEKVIRYQVVNICDDEGLNPIVSEEQIRLQHEALNEAFSRYNISWQLSVHQVHNSTLRHRVVLVNCEPSKIGNDHCDPECEHPLTGYDGGDCRLQGRCYSWNRRDGLCHVECNNMLNDFDDGDCCDPQVADVRKTCFDPDSPKRAYMSVKELKEALQLNSTHFLNIYFASSVREDLAGAATWPWDKDAVTHLGGIVLSPAYYGMPGHTDTMIHEVGHVLGLYHVFKGVSERESCNDPCKETVPSMETGDLCADTAPTPKSELCREPEPTSDTCGFTRFPGAPFTNYMSYTDDNCTDNFTPNQVARMHCYLDLVYQQWTESRKPTPIPIPPMVIGQTNKSLTIHWLPPISGVVYDRASGSLCGACTEDGTFRQYVHTASSRRVCDSSGYWTPEEAVGPPDVDQPCEPSLQAWSPEVHLYHMNMTVPCPTEGCSLELLFQHPVQADTLTLWVTSFFMESSQVLFDTEILLENKESVHLGPLDTFCDIPLTIKLHVDGKVSGVKVYTFDERIEIDAALLTSQPHSPLCSGCRPVRYQVLRDPPFASGLPVVVTHSHRKFTDVEVTPGQMYQYQVLAEAGGELGEASPPLNHIHGAPYCGDGKVSERLGEECDDGDLVSGDGCSKVCELEEGFNCVGEPSLCYMYEGDGICEPFERKTSIVDCGIYTPKGYLDQWATRAYSSHEDKKKCPVSLVTGEPHSLICTSYHPDLPNHRPLTGWFPCVASENETQDDRSEQPEGSLKKEDEVWLKVCFNRPGEARAIFIFLTTDGLVPGEHQQPTVTLYLTDVRGSNHSLGTYGLSCQHNPLIINVTHHQNVLFHHTTSVLLNFSSPRVGISAVALRTSSRIGLSAPSNCISEDEGQNHQGQSCIHRPCGKQDSCPSLLLDHADVVNCTSIGPGLMKCAITCQRGFALQASSGQYIRPMQKEILLTCSSGHWDQNVSCLPVDCGVPDPSLVNYANFSCSEGTKFLKRCSISCVPPAKLQGLSPWLTCLEDGLWSLPEVYCKLECDAPPIILNANLLLPHCLQDNHDVGTICKYECKPGYYVAESAEGKVRNKLLKIQCLEGGIWEQGSCIPVVCEPPPPVFEGMYECTNGFSLDSQCVLNCNQEREKLPILCTKEGLWTQEFKLCENLQGECPPPPSELNSVEYKCEQGYGIGAVCSPLCVIPPSDPVMLPENITADTLEHWMEPVKVQSIVCTGRRQWHPDPVLVHCIQSCEPFQADGWCDTINNRAYCHYDGGDCCSSTLSSKKVIPFAADCDLDECTCRDPKAEENQ
As for B1, in data set [1], the “IGF-1 signaling (AP-1 driven bioluminescence) in the presence of IGFBP-3” value was “Treatment with PAPPA2 allows for robust IGF-1 signaling in the modeled healthy and disease-state”; the “protease activity: intact IGFBP-3 by ELISA” value was “PAPPA2 from conditioned media efficiently cleaves IGFBP-3, as measured by an ELISA for intact IGFBP-3, with and without bound IGF-1”. In addition, the “protease activity: intact IGFBP-3 in synovial fluid by ELISA” value in data set [2] was “Treatment of healthy or diseased human synovial fluid with conditioned media containing PAPPA2 results in a significant decrease in intact IGFBP-3”.

Source of the values: US20240024505.
